Measurements published in the Human Domainome abundance scans (Beltran et al. 2025).
± gives the uncertainty stated by the source.

B1: Chromodomain-helicase-DNA-binding protein 4, residues 444 to 496; numbered along this chain, Q14839 (parent)
chain: EDDHHMEFCRVCKDGGELLCCDTCPSSYHIHCLNPPLPEIPNGEWLCPRCTCP

Variants of: B1
Assay: abundance fitness (aPCA) (normalised: wild type 0, dead -1); higher = more abundant; growth selection in yeast, the domain comes from the species named
Details: Homo sapiens

Going from G16W to G16F, the abundance fitness rises from -0.906 ± 0.12 to -0.556 ± 0.099.

First: P38F
Second: P38H
The abundance fitness of the first is lower: -0.153 ± 0.054 for the first, -0.008 ± 0.061 for the second.

Compared with P38K, P38M is lower in abundance fitness: 0.088 ± 0.068 for the first, -0.082 ± 0.043 for the second.

P38I and P38V are within error of each other in abundance fitness: -0.059 ± 0.051 for the first, -0.113 ± 0.058 for the second.

P38G and P38E are within error of each other in abundance fitness: -0.196 ± 0.078 for the first, -0.096 ± 0.099 for the second.

P38Q and P38A are within error of each other in abundance fitness: 0.085 ± 0.062 for the first, -0.014 ± 0.06 for the second.

Going from P53H to C32F, the abundance fitness falls from 0.616 ± 0.46 to -1.02 ± 0.059.

Going from C32P to C32D, the abundance fitness rises from -0.937 ± 0.074 to -0.68 ± 0.1.

Compared with C32M, S27G is higher in abundance fitness: -1 ± 0.079 for the first, -0.22 ± 0.057 for the second.

Compared with S27D, S27Q is higher in abundance fitness: -0.705 ± 0.12 for the first, -0.064 ± 0.076 for the second.

First: S27P
Second: S27A
The abundance fitness of the first is lower: -0.572 ± 0.075 for the first, 0.067 ± 0.062 for the second.

S27H and S27Y are within error of each other in abundance fitness: -0.068 ± 0.059 for the first, 0.029 ± 0.059 for the second.

S27N and S27V are within error of each other in abundance fitness: -0.026 ± 0.07 for the first, -0.057 ± 0.049 for the second.

Going from S27F to L46I, the abundance fitness rises from -0.177 ± 0.076 to -0.012 ± 0.063.

First: L46P
Second: L46K
The abundance fitness of the first is lower: -0.426 ± 0.044 for the first, 0.079 ± 0.061 for the second.

L46A and L46R are within error of each other in abundance fitness: -0.033 ± 0.04 for the first, 0.008 ± 0.046 for the second.

Compared with E44W, E44R is higher in abundance fitness: -0.413 ± 0.076 for the first, -0.001 ± 0.042 for the second.

E44I and E44M are within error of each other in abundance fitness: -0.119 ± 0.076 for the first, -0.084 ± 0.071 for the second.

Going from H29T to H29N, the abundance fitness rises from -0.921 ± 0.048 to -0.556 ± 0.12.

Going from H29S to H29F, the abundance fitness falls from -0.728 ± 0.054 to -0.918 ± 0.11.

First: H29I
Second: H29C
The abundance fitness of the first is lower: -0.822 ± 0.09 for the first, -0.317 ± 0.063 for the second.

Going from H29Q to G43H, the abundance fitness rises from -0.833 ± 0.11 to -0.13 ± 0.067.

G43N and G43R are within error of each other in abundance fitness: -0.068 ± 0.078 for the first, -0.044 ± 0.059 for the second.

Compared with G43A, G43F is lower in abundance fitness: -0.079 ± 0.043 for the first, -0.188 ± 0.058 for the second.

Compared with G43P, G43E is higher in abundance fitness: -0.287 ± 0.058 for the first, -0.07 ± 0.047 for the second.

Going from P35Y to P35E, the abundance fitness rises from -0.301 ± 0.052 to -0.076 ± 0.088.

P35G and P35S are within error of each other in abundance fitness: -0.289 ± 0.067 for the first, -0.261 ± 0.042 for the second.

Compared with P35I, P35K is higher in abundance fitness: -0.432 ± 0.078 for the first, -0.199 ± 0.072 for the second.

P35L and P35F are within error of each other in abundance fitness: -0.378 ± 0.046 for the first, -0.45 ± 0.05 for the second.

D3H and D3R are within error of each other in abundance fitness: 0.1 ± 0.075 for the first, 0.06 ± 0.038 for the second.

D3L and D3I are within error of each other in abundance fitness: 0.342 ± 0.046 for the first, 0.393 ± 0.069 for the second.

First: R49S
Second: R49T
The abundance fitness of the first is lower: -0.095 ± 0.047 for the first, 0.043 ± 0.047 for the second.

First: R49I
Second: R49L
The abundance fitness of the first is higher: 0.016 ± 0.072 for the first, -0.101 ± 0.044 for the second.

R49A and R49Q are within error of each other in abundance fitness: 0.019 ± 0.055 for the first, 0.034 ± 0.043 for the second.

R49P and R49F are within error of each other in abundance fitness: -0.187 ± 0.049 for the first, -0.089 ± 0.06 for the second.

First: C9M
Second: C9T
The abundance fitness of the first is lower: -0.98 ± 0.1 for the first, -0.815 ± 0.061 for the second.

C9Y and C9V are within error of each other in abundance fitness: -0.979 ± 0.13 for the first, -0.988 ± 0.11 for the second.

First: C9E
Second: C9I
The abundance fitness of the first is higher: -0.483 ± 0.1 for the first, -0.827 ± 0.083 for the second.

C9N and C9R are within error of each other in abundance fitness: -0.689 ± 0.054 for the first, -0.571 ± 0.066 for the second.

Going from G15D to G15M, the abundance fitness rises from -0.274 ± 0.089 to -0.102 ± 0.055.

Going from G15N to D2F, the abundance fitness rises from -0.179 ± 0.055 to 0.463 ± 0.069.

Compared with D2N, D2W is lower in abundance fitness: 0.091 ± 0.056 for the first, -0.334 ± 0.093 for the second.

First: D2G
Second: D2H
The abundance fitness of the first is higher: 0.26 ± 0.082 for the first, -0.036 ± 0.057 for the second.

Compared with D2K, D2S is lower in abundance fitness: 0.378 ± 0.043 for the first, 0.202 ± 0.045 for the second.

Going from D2Y to D2L, the abundance fitness rises from 0.016 ± 0.076 to 0.163 ± 0.05.

Compared with C52T, C52W is lower in abundance fitness: 0.288 ± 0.13 for the first, -0.033 ± 0.14 for the second.

C52Y and C52H are within error of each other in abundance fitness: -0.019 ± 0.097 for the first, 0.096 ± 0.16 for the second.

C52D and C52N are within error of each other in abundance fitness: -0.218 ± 0.17 for the first, -0.161 ± 0.16 for the second.

Going from H4A to H4C, the abundance fitness rises from -0.14 ± 0.042 to 0.032 ± 0.042.

First: H4I
Second: H4L
The abundance fitness of the first is higher: 0.025 ± 0.056 for the first, -0.162 ± 0.043 for the second.

N34I and N34V are within error of each other in abundance fitness: -0.075 ± 0.051 for the first, -0.073 ± 0.061 for the second.

Compared with N34A, N34G is lower in abundance fitness: -0.08 ± 0.057 for the first, -0.345 ± 0.075 for the second.

Compared with N34H, N34S is higher in abundance fitness: -0.262 ± 0.069 for the first, 0.018 ± 0.048 for the second.

N34P and V11S are within error of each other in abundance fitness: -0.219 ± 0.054 for the first, -0.159 ± 0.049 for the second.

Compared with V11G, V11F is lower in abundance fitness: -0.135 ± 0.057 for the first, -0.359 ± 0.067 for the second.

V11Q and V11I are within error of each other in abundance fitness: -0.037 ± 0.043 for the first, -0.074 ± 0.083 for the second.

First: V11A
Second: L18P
The abundance fitness of the first is higher: -0.316 ± 0.065 for the first, -1.07 ± 0.072 for the second.

Compared with L18Y, L18D is lower in abundance fitness: -0.751 ± 0.055 for the first, -1.3 ± 0.39 for the second.

L18S and L18E are within error of each other in abundance fitness: -0.717 ± 0.061 for the first, -0.744 ± 0.1 for the second.

Going from I40A to I40N, the abundance fitness falls from 0.07 ± 0.06 to -0.066 ± 0.057.

I40K and I40G are within error of each other in abundance fitness: 0.11 ± 0.065 for the first, -0.007 ± 0.059 for the second.

I40V and I40C are within error of each other in abundance fitness: 0.055 ± 0.043 for the first, 0.019 ± 0.048 for the second.

Compared with C47V, C47A is lower in abundance fitness: -0.605 ± 0.055 for the first, -0.804 ± 0.074 for the second.

Compared with C47K, C47L is lower in abundance fitness: -0.503 ± 0.074 for the first, -0.639 ± 0.047 for the second.

Going from C47W to C47R, the abundance fitness rises from -0.766 ± 0.056 to -0.664 ± 0.041.

Going from C47H to C47P, the abundance fitness falls from -0.36 ± 0.052 to -0.552 ± 0.043.

C47E and C47Q are within error of each other in abundance fitness: -0.606 ± 0.094 for the first, -0.627 ± 0.074 for the second.

Going from E17L to E17P, the abundance fitness falls from -0.535 ± 0.047 to -0.657 ± 0.06.

E17R and E17S are within error of each other in abundance fitness: -0.123 ± 0.061 for the first, -0.184 ± 0.053 for the second.

Going from E17T to E17W, the abundance fitness falls from 0.015 ± 0.051 to -0.576 ± 0.081.

E17D and E17Q are within error of each other in abundance fitness: -0.232 ± 0.076 for the first, -0.146 ± 0.066 for the second.

E39H and E39P are within error of each other in abundance fitness: -0.132 ± 0.058 for the first, -0.152 ± 0.049 for the second.

First: E39I
Second: E39K
The abundance fitness of the first is lower: -0.026 ± 0.045 for the first, 0.121 ± 0.08 for the second.

First: E39W
Second: T23M
The abundance fitness of the first is lower: -0.35 ± 0.086 for the first, -0.077 ± 0.067 for the second.

T23L and T23W are within error of each other in abundance fitness: -0.195 ± 0.053 for the first, -0.2 ± 0.044 for the second.

Compared with T23Q, T23F is lower in abundance fitness: -0.07 ± 0.066 for the first, -0.221 ± 0.077 for the second.

T23C and T51V are within error of each other in abundance fitness: -0.074 ± 0.088 for the first, -0.048 ± 0.05 for the second.

T51H and T51C are within error of each other in abundance fitness: -0.169 ± 0.08 for the first, -0.151 ± 0.076 for the second.

Going from T51G to T51P, the abundance fitness rises from -0.136 ± 0.042 to 0.031 ± 0.046.

First: T51S
Second: T51W
The abundance fitness of the first is higher: 0.013 ± 0.056 for the first, -0.12 ± 0.06 for the second.

First: K13Y
Second: K13W
The abundance fitness of the first is lower: -0.375 ± 0.065 for the first, -0.139 ± 0.054 for the second.

First: K13H
Second: K13S
The abundance fitness of the first is lower: -0.286 ± 0.046 for the first, -0.101 ± 0.049 for the second.

Going from K13L to K13P, the abundance fitness falls from -0.129 ± 0.042 to -1.08 ± 0.068.

Work on K13A yielded an abundance fitness of 0.085 ± 0.046.
